3T3 Mito., no heparin (ED50 wild type / ED50 analog x 100%) (% of wild type), FGF-Rc Comp. (ED50 analog / ED50 wild type FGF) and 3T3 Mito., 1 ug/ml heparin (ED50 wild type / ED50 analog x 100%) (% of wild type) data for 20 substances are collected here from patent US20030040042A1, “Recombinant fibroblast growth factors” (published 2003).

Test [1] addresses FGF receptor on Balb/c 3T3 cells.
Test [2] shares this target. Briefly: competition with [125I]-bFGF on Balb/c 3T3 cells, 1 ug/ml heparin.
The target is the same in test [3]. Briefly: competition with [125I]-bFGF on Balb/c 3T3 cells, no heparin.

“bFGF-H59N (from UniProt P09038-2) (ligand)”: the 3T3 Mito., no heparin (ED50 wild type / ED50 analog x 100%) (% of wild type) in test [1] came out at 315. Besides, the FGF-Rc Comp. (ED50 analog / ED50 wild type FGF) in test [2] and in test [3] was 0.4 in each case.

Regarding “bFGF-R116T (from UniProt P09038-2) (ligand)”, in test [1], the 3T3 Mito., 1 ug/ml heparin (ED50 wild type / ED50 analog x 100%) (% of wild type) came to 300 and the 3T3 Mito., no heparin (ED50 wild type / ED50 analog x 100%) (% of wild type) was found to be 50. Besides, the FGF-Rc Comp. (ED50 analog / ED50 wild type FGF) in test [3] turned out to be 0.2.

For “bFGF-R129T (from UniProt P09038-2) (ligand)”, in test [1], the 3T3 Mito., 1 ug/ml heparin (ED50 wild type / ED50 analog x 100%) (% of wild type) was found to be 190 and the 3T3 Mito., no heparin (ED50 wild type / ED50 analog x 100%) (% of wild type) was found to be 87. Besides, in test [2], the FGF-Rc Comp. (ED50 analog / ED50 wild type FGF) was found to be 0.5. Also, the FGF-Rc Comp. (ED50 analog / ED50 wild type FGF) in test [3] stood at 1.3.

Regarding “bFGF-N113S (from UniProt P09038-2) (ligand)”, the 3T3 Mito., no heparin (ED50 wild type / ED50 analog x 100%) (% of wild type) in test [1] is 160. For the same substance, the FGF-Rc Comp. (ED50 analog / ED50 wild type FGF) in test [2] and in test [3] was 1 throughout.

Regarding “bFGF-K55M (from UniProt P09038-2) (ligand)”, the FGF-Rc Comp. (ED50 analog / ED50 wild type FGF) in test [2] and in test [3] was 0.4 throughout.

Turning to “bFGF-D50A (from UniProt P09038-2) (ligand)”, the FGF-Rc Comp. (ED50 analog / ED50 wild type FGF) in test [2] and in test [3] was 2.5 each time.

As to “bFGF-V52K (from UniProt P09038-2) (ligand)”, the FGF-Rc Comp. (ED50 analog / ED50 wild type FGF) in test [2] amounted to 0.4; in test [3], 0.5.

In the case of “bFGF-D28K (from UniProt P09038-2) (ligand)”, the values for the FGF-Rc Comp. (ED50 analog / ED50 wild type FGF) in test [2] and in test [3] were 1.3 and 1, respectively.

Turning to K95T (from UniProt P09038-2) (ligand), in test [1], the 3T3 Mito., 1 ug/ml heparin (ED50 wild type / ED50 analog x 100%) (% of wild type) worked out at 170 and the 3T3 Mito., no heparin (ED50 wild type / ED50 analog x 100%) (% of wild type) was 100.

For “bFGF-K35S (from UniProt P09038-2) (ligand)”, the values for the FGF-Rc Comp. (ED50 analog / ED50 wild type FGF) in test [2] and in test [3] were 0.05 and 0.1, respectively.

Turning to “bFGF-K27M (from UniProt P09038-2) (ligand)”, the FGF-Rc Comp. (ED50 analog / ED50 wild type FGF) in test [2] was 0.2; in test [3], 0.3.

With “bFGF-R53L (from UniProt P09038-2) (ligand)”, the FGF-Rc Comp. (ED50 analog / ED50 wild type FGF) stood at 0.25 in test [2] and 0.22 in test [3].

“bFGF-C78S (from UniProt P09038-2) (ligand)”: the FGF-Rc Comp. (ED50 analog / ED50 wild type FGF) is 0.25 in test [2] and 0.3 in test [3].

For “bFGF-C96S (from UniProt P09038-2) (ligand)”, the figures for the FGF-Rc Comp. (ED50 analog / ED50 wild type FGF) in test [2] and in test [3] were 0.8 and 0.3, respectively.

In the case of “bFGF-E100S (from UniProt P09038-2) (ligand)”, the FGF-Rc Comp. (ED50 analog / ED50 wild type FGF) in test [2] came to 0.5; in test [3], 1.1.

For R106T (from UniProt P09038-2) (ligand), in test [1], the 3T3 Mito., 1 ug/ml heparin (ED50 wild type / ED50 analog x 100%) (% of wild type) was found to be 250 and the 3T3 Mito., no heparin (ED50 wild type / ED50 analog x 100%) (% of wild type) is 210.

As to “bFGF-K128E (from UniProt P09038-2) (ligand)”, in test [1], the 3T3 Mito., 1 ug/ml heparin (ED50 wild type / ED50 analog x 100%) (% of wild type) was 140 and the 3T3 Mito., no heparin (ED50 wild type / ED50 analog x 100%) (% of wild type) is 200.

Substance “bFGF-D46A (from UniProt P09038-2) (ligand)” had an FGF-Rc Comp. (ED50 analog / ED50 wild type FGF) in test [3] of 0.5.

As to “human acidic FGF (from UniProt P05230) (ligand)”, in test [1], the 3T3 Mito., 1 ug/ml heparin (ED50 wild type / ED50 analog x 100%) (% of wild type) amounted to 25 and the 3T3 Mito., no heparin (ED50 wild type / ED50 analog x 100%) (% of wild type) amounted to 5. Also, the FGF-Rc Comp. (ED50 analog / ED50 wild type FGF) in test [3] worked out at 0.5.

Consider “bFGF-E100A (from UniProt P09038-2) (ligand)”, for which the FGF-Rc Comp. (ED50 analog / ED50 wild type FGF) in test [2] was 1; in test [3], 0.8.
